This is an account of results in patent publication US20040116653A1 (JARROW FORMULAS, published 2004).

For this experiment, the target named is human CD4 on cells (MT-2, MT-4 cells; mouse SR.hCD4 cells transfected with human CD4) (human, UniProt P01730 26-458). The experiment in a line: cell-based or functional assay.

Ends that are not written are not given here.

B1: synthetic soluble peptide corresponding to amino acids 51-74 of CD38 (CD3851-74) (peptide)
peptide: SGPGTTKRFPETVLARCVKYTEIH
modifications: also: biotin conjugated in ELISA, site not given here
In the case of B1, the “EC50, inhibition of HIV-1IIIB replication in MT-4 cells (p24 ELISA, day 3)” value stood at 2.2 µM.

B2: octameric branched peptide presenting the GPGTTK sequence (GPGTTK MBP) (peptide)
peptide 1: GPGTTK
peptide 2: GPGTTK
peptide 3: GPGTTK
peptide 4: GPGTTK
peptide 5: GPGTTK
peptide 6: GPGTTK
peptide 7: GPGTTK
peptide 8: GPGTTK
modifications: Each of the eight arms is bound through its C-terminus (Lys 6) to an 8-branching lysine core (Map resin), which cannot be written as a linear chain. The peptide was conjugated with biotin for the rshCD4 ELISA; the site is not stated.
Consider B2, for which the “EC50, inhibition of HIV-1IIIB replication in MT-4 cells (p24 ELISA, day 3)” value turned out to be 4.3 µM.
